The series deals with the molecule itself. The series is described as follows: cross-linking + other: mass photometry; complex stabilised by glutaraldehyde cross-linking, then mass photometry (25 to 50 nM, 50 mM HEPES pH 7.4, 150 mM NaCl, 1 mM TCEP).

B1: GST-tagged 14-3-3η (coexpressed with MAST1^DK) (natural protein, UniProt Q04917 1-246, looked up)
chain: MGDREQLLQRARLAEQAERYDDMASAMKAVTELNEPLSNEDRNLLSVAYKNVVGARRSSWRVISSIEQKTMADGNEKKLEKVKAYREKIEKELETVCNDVLSLLDKFLIKNCNDFQYESKVFYLKMKGDYYRYLAEVASGEKKNSVVEASEAAYKEAFEISKEQMQPTHPIRLGLALNFSVFYYEIQNAPEQACLLAKQAFDDAIAELDTLNEDSYKDSTLIMQLLRDNLTLWTSDQQDEEAGEGN
notes: 14-3-3 protein eta
By stoichiometry N is commonly meant the number of molecules, sites or subunits per partner or assembly. Consider B1, for which the “stoichiometry N” value stood at 2.

B2: 14-3-3η (purified, recombinant) (natural protein, UniProt Q04917 1-246, looked up)
chain: MGDREQLLQRARLAEQAERYDDMASAMKAVTELNEPLSNEDRNLLSVAYKNVVGARRSSWRVISSIEQKTMADGNEKKLEKVKAYREKIEKELETVCNDVLSLLDKFLIKNCNDFQYESKVFYLKMKGDYYRYLAEVASGEKKNSVVEASEAAYKEAFEISKEQMQPTHPIRLGLALNFSVFYYEIQNAPEQACLLAKQAFDDAIAELDTLNEDSYKDSTLIMQLLRDNLTLWTSDQQDEEAGEGN
notes: 14-3-3 protein eta; also called purified 14-3-3η; source: purified recombinant
With B2, the “stoichiometry N” value came to 2.

These data come from paper PMC13598245, “A complex of MAST1 and 14-3-3η regulates Tau phosphorylation in the developing cortex” (Proceedings of the National Academy of Sciences of the …, 2026).
